These substances were tested against mitochondrial antiviral signaling protein (MAVS), from pCMV-FLAG-MAVS (UniProt Q8VCF0) (assay: co-immunoprecipitation with quantitative western blot). Conditions: 293T cells co-transfected with MAVS and viperin mutant; at least 3 independent experiments; parent: est. 100; read off a plot.

Row | Substance | percent of parent [% WT]
1 | viperin (Virus Inhibitory Protein, Endoplasmic Reticulum-associated, interferon-inducible), wild type, from pcDNA3.1-viperin (from UniProt Q8CBB9) C84A | 93
2 | viperin (Virus Inhibitory Protein, Endoplasmic Reticulum-associated, interferon-inducible), wild type, from pcDNA3.1-viperin (from UniProt Q8CBB9) F90A | 160
3 | viperin (Virus Inhibitory Protein, Endoplasmic Reticulum-associated, interferon-inducible), wild type, from pcDNA3.1-viperin (from UniProt Q8CBB9) G117A | 20
4 | viperin (Virus Inhibitory Protein, Endoplasmic Reticulum-associated, interferon-inducible), wild type, from pcDNA3.1-viperin (from UniProt Q8CBB9) H79A | 140
5 | viperin (Virus Inhibitory Protein, Endoplasmic Reticulum-associated, interferon-inducible), wild type, from pcDNA3.1-viperin (from UniProt Q8CBB9) H93A | 90
6 | viperin (Virus Inhibitory Protein, Endoplasmic Reticulum-associated, interferon-inducible), wild type, from pcDNA3.1-viperin (from UniProt Q8CBB9) K96A | 81
7 | viperin (Virus Inhibitory Protein, Endoplasmic Reticulum-associated, interferon-inducible), wild type, from pcDNA3.1-viperin (from UniProt Q8CBB9) K120A | 12
8 | viperin (Virus Inhibitory Protein, Endoplasmic Reticulum-associated, interferon-inducible), wild type, from pcDNA3.1-viperin (from UniProt Q8CBB9) N77A | 83
9 | viperin (Virus Inhibitory Protein, Endoplasmic Reticulum-associated, interferon-inducible), wild type, from pcDNA3.1-viperin (from UniProt Q8CBB9) N85A | 100
10 | viperin (Virus Inhibitory Protein, Endoplasmic Reticulum-associated, interferon-inducible), wild type, from pcDNA3.1-viperin (from UniProt Q8CBB9) P73A | 220
11 | viperin (Virus Inhibitory Protein, Endoplasmic Reticulum-associated, interferon-inducible), wild type, from pcDNA3.1-viperin (from UniProt Q8CBB9) R82A | 66
12 | viperin (Virus Inhibitory Protein, Endoplasmic Reticulum-associated, interferon-inducible), wild type, from pcDNA3.1-viperin (from UniProt Q8CBB9) S75A | 57
13 | viperin (Virus Inhibitory Protein, Endoplasmic Reticulum-associated, interferon-inducible), wild type, from pcDNA3.1-viperin (from UniProt Q8CBB9) T81A | 240
14 | viperin (Virus Inhibitory Protein, Endoplasmic Reticulum-associated, interferon-inducible), wild type, from pcDNA3.1-viperin (from UniProt Q8CBB9) T94A | 30
15 | viperin (Virus Inhibitory Protein, Endoplasmic Reticulum-associated, interferon-inducible), wild type, from pcDNA3.1-viperin (from UniProt Q8CBB9) T97A | 45
16 | viperin (Virus Inhibitory Protein, Endoplasmic Reticulum-associated, interferon-inducible), wild type, from pcDNA3.1-viperin (from UniProt Q8CBB9) Y86A | 120
